Experiments:
[1] = molecular target: ILT4 receptor on dendritic cells of ILT4 transgenic mice (UniProt Q8N423); experiment: cell-based or functional assay
[2] = molecular target: ILT2-PILRβ chimera on NFAT-GFP reporter cells (UniProt Q8NHL6); experiment: cell-based or functional assay
Sequence of ILT2-PILRβ chimera on NFAT-GFP reporter cells (Q8NHL6 24-461, change not shown): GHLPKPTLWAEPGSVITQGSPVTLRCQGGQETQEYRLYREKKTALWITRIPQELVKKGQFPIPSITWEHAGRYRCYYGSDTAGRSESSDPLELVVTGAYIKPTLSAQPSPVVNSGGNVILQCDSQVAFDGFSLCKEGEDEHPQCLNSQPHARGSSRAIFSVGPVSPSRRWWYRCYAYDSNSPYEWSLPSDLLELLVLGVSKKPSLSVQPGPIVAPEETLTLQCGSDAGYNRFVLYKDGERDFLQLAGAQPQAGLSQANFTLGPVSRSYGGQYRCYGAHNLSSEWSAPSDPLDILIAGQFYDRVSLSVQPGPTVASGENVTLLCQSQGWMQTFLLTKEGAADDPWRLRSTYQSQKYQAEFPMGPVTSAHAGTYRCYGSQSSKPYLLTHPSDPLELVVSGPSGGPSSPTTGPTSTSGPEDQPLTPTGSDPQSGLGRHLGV

Sequence of ILT4 receptor on dendritic cells of ILT4 transgenic mice (Q8N423 22-597 limits assumed): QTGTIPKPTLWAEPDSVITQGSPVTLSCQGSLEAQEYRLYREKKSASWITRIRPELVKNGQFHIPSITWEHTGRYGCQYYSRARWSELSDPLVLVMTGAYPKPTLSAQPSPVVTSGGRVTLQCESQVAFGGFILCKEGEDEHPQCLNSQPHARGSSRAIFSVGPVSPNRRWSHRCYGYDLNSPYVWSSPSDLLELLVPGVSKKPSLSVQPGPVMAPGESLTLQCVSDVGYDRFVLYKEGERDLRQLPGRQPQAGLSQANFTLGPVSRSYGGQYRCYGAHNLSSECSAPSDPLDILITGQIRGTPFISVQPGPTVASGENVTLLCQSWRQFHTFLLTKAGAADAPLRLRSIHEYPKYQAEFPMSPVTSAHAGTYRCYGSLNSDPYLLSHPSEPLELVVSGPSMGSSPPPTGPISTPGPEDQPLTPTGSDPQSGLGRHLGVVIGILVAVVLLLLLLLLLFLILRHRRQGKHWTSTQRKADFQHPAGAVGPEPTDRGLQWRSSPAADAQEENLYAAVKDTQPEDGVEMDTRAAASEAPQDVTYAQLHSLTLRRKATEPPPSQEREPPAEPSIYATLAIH

| fold increase of IL-6 transcript in ILT4-positive BMDCs (gene array) [1] | MFI of GFP at 100 ng/ml immobilized ligand (NFAT-GFP reporter) [2] | percentage of GFP-positive cells at 100 ng/ml immobilized ligand (NFAT-GFP reporter) [2] | mean fluorescent intensity (MFI) of GFP at 100 ng/ml immobilized ligand (NFAT-GFP reporter) [2] | Substance |
| --- | --- | --- | --- | --- |
| 9.3 fold | – | – | – | HLA-G1 tetrameric complexes (from UniProt P17693 25-300; P61769 21-119) (ligand) |
| 8.9 fold | 9.9 MFI | 56.8% | – | HLA-G5 dimer (from UniProt P17693 25-338; P61769 21-119) (ligand) |
| – | – | 5.6% | 7.8 MFI | HLA-G5 monomer (from UniProt P17693 25-338; P61769 21-119) (ligand) |

— patent US20110135672A1
